For 72 sequences, protein stability index results are on record in the supplement of paper PMC10567573.

This data set in a line: protein stability index of a GFP-peptide fusion (GPS, HEK-293T) (PSI 1-6); higher = more stable.
Where [1] appears, read: treatment: DMSO, c terminus: a fixed tail appended.
Where [2] appears, read: treatment: MLN4924 1 uM, 8 h, c terminus: a fixed tail appended.
The mark [3] stands for this setting: treatment: DMSO, c terminus: native.
Where [4] appears, read: treatment: MLN4924 1 uM, 8 h, c terminus: native.

± gives the standard deviation.
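Also: 24-mer peptide tiles fused after GFP, lentivirally expressed, FACS-sorted into six equal bins by GFP/DsRed ratio, decoded by Illumina sequencing, PSI is the read-weighted mean bin number.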

As to GGFLSESKDCKPPVYLLLELEDKD [MYBL2], the protein stability index came to 3.99 ± 0.21 under setting [1] and 4.17 ± 0.32 under setting [2].
As for VPRPGIPPMTQAQAVSAPGILNRP [ZNF207], the protein stability index amounted to 4.55 ± 0.063 under setting [1] and 4.45 ± 0.086 under setting [2].
For PLVEKKRRARINESLQELRLLLAG [HES6], the protein stability index turned out to be 2.63 ± 0.6 under setting [1] and 2.75 ± 0.73 under setting [2].
For MYEEEINETRRKHETRLVEVDSGR [LMNB1], in that order: 5.04 ± 0.44 and 5.06 ± 0.099.
Taken in the same sequence, the figures for LACGSNRFNKLGLDHLSLGEEPVP [NEK8] were 3.12 ± 0.14 and 3.2 ± 0.14.
For LVELLQPFKQVAEMLSASRYPTIS [ZBED1], the protein stability index turned out to be 2.65 ± 0.66 under setting [1] and 2.29 ± 0.57 under setting [2].
Regarding QYSVEGGKETLTPSELRDLVTQQL [S100A14], the protein stability index reads like this: under setting [1], 4.59 ± 0.23; under setting [2], 4.55 ± 0.13.
On to QGFSYSKSNGRGGSQAGGSGSAGQ [MYOZ1], for which the protein stability index is, setting by setting: under setting [1], 4.76 ± 0.18; under setting [2], 5.02 ± 0.16.
For DRARRFEEALRKNTEEQLEIALAP [MTUS2], in that order: 4.9 ± 0.22 and 4.85 ± 0.28.
For LGKESFYDTFHTVADMMYFCQMLA [HACD3], the protein stability index reads like this: under setting [1], 2.56 ± 0.92; under setting [2], 3.15 ± 0.99.
Regarding ERIDCQGIPPSSKDKLGVWVYKNK [KLHDC2], the protein stability index amounted to 3.75 ± 0.23 under setting [1] and 3.64 ± 0.34 under setting [2].
In the case of HSDPEESFARDLPDFPSINMDPAG [RETREG3], the protein stability index under setting [1] was 5.19 ± 0.25 and the protein stability index under setting [2] was 5.22 ± 0.16.
In the case of GDWARLLEQMGALAVRGSRREREL [ZBED3], the protein stability index was found to be 3.13 ± 0.51 under setting [1] and 2.89 ± 0.3 under setting [2].
For SEHFKTTSQKVARKFWWKNVKMIV [VAMP8], in that order: 2.69 ± 0.24 and 2.61 ± 0.71.
As to RRLRDMVERPHSGLPGKVFACLSV [KCNG1], the protein stability index came to 2.47 ± 0.49 under setting [1] and 2.4 ± 0.49 under setting [2].
Taken in the same sequence, the figures for LRRSVEKYNSARADFEQKMLDSAL [FCHO1] were 3.29 ± 0.54 and 3.35 ± 0.14.
Consider LLWSDPADNKIVSHLLVAEPEKIY [ESRRG], for which the protein stability index runs as follows: under setting [1], 2.36 ± 0.3; under setting [2], 2.55 ± 0.16.
For AASLAGCLGALCENTCLLRGFSGG [TSPAN10], in that order: 2.22 ± 0.57 and 2.37 ± 0.58.
In the case of QGEAFQRALESELQQLRARLQGLE [PBXIP1], the protein stability index is, setting by setting: under setting [1], 3.1 ± 0.17; under setting [2], 3.23 ± 0.28.
For KVPREKDEPGKGGFWRIDPQYAER [FOXJ1], in that order: 4.12 ± 0.34 and 4.2 ± 0.21.
With GLQPVVFVLFLFAYLVTVRGNLSI [OR3A1], the protein stability index was 2.6 ± 0.47 under setting [1] and 2.19 ± 0.21 under setting [2].
For the sequence MSQPRTPEQALDTPGDCPPGRRDE [TMEM175], the protein stability index is 5.38 ± 0.17 under setting [1] and 5.58 ± 0.19 under setting [2].
For the sequence RKKRLLDRKVLLKSDSPTGDVLLD [GOLPH3L], the protein stability index came to 4.22 ± 0.14 under setting [1] and 4.14 ± 0.19 under setting [2].
Taken in the same sequence, the figures for EYIDPETKKHIPYREHKSLTGTAR [CSNK1G1] were 4.15 ± 0.28 and 4.08 ± 0.42.
With TLAGLRSRRLKQPKAFCLRDVAP [MIR22HG], the protein stability index is, setting by setting: under setting [3], 3.11 ± 0.44; under setting [4], 2.99 ± 0.21.
Regarding LIKAKSQARLEEQQRLAHLEDKLR [LRRC45], the protein stability index stood at 3.77 ± 0.25 under setting [1] and 3.96 ± 0.25 under setting [2].
Taken in the same sequence, the figures for VNPFQLQQFRADPSTASLLLCPGG [TIAF1] were 2.93 ± 0.11 and 2.78 ± 0.14.
With LEQTAREILTLLQGVHQGAGFQDI [TSN], the protein stability index was found to be 3.07 ± 0.32 under setting [1] and 2.81 ± 0.38 under setting [2].
For HCLHSAGHSQPDGAYSSASSFSRP [DLX1], in that order: 3.53 ± 0.27 and 3.61 ± 0.17.
For FALIAVVFLASGAVSVMKKCRKLE [SLC19A2], in that order: 3.18 ± 0.35 and 3 ± 0.29.
Regarding TLVEAIKEQDGREVDWEYFYGLLF [DFFB], the protein stability index is, setting by setting: under setting [1], 2.46 ± 0.28; under setting [2], 2.69 ± 0.63.
For REVALLRRLEAFEHPNVVRLMDVC [CDK4], in that order: 2.52 ± 0.15 and 2.68 ± 0.2.
For MDPPNPEEVKTPEEEMRSHYVAQT [GAGE1], in that order: 5.44 ± 0.087 and 5.4 ± 0.2.
For NHWVPACHSFNRAIHKKAKGTEAE [FBXO34], in that order: 4 ± 0.17 and 4.1 ± 0.12.
On to RDILVEADGAWVVKMFYSFQDKRN [STK38L], for which the protein stability index amounted to 2.07 ± 0.29 under setting [1] and 2.3 ± 0.4 under setting [2].
With RETVLIETQLKACASFIRTRLLLQ [C8orf76], the protein stability index under setting [1] came out at 2.88 ± 0.57 and the protein stability index under setting [2] is 2.9 ± 0.71.
In turn, AFADIIHSLKESGQLWLDAYLHQ [FADS1] registered a protein stability index under setting [3] of 2.7 ± 0.78 and a protein stability index under setting [4] of 2.49 ± 0.58.
Consider PVSASRSSLDLSYYPTSSSTSFMS [EMD], for which the protein stability index was 3.38 ± 0.21 under setting [1] and 3.38 ± 0.13 under setting [2].
For VPWSQCLQNFLLHGTKNVTNSSSL [WSB1], the protein stability index was found to be 2.19 ± 0.21 under setting [1] and 2.19 ± 0.24 under setting [2].
With LASQALTPPPGPASAQPLPAPEAA [TFE3], the protein stability index under setting [1] is 5.26 ± 0.25 and the protein stability index under setting [2] is 5.24 ± 0.11.
Taken in the same sequence, the figures for LPNFAFSVPLAYFLLSQQTDLPEC [TCF25] were 2.72 ± 1.8 and 2.94 ± 0.38.
Turning to FGGVIAFSSYNKQDNNCHFDAALV [SLC6A17], the protein stability index under setting [1] amounted to 2.42 ± 0.32 and the protein stability index under setting [2] was found to be 2.43 ± 0.45.
Take TEPETAPTTEPETEPEDDRGPVVP [GNAS]: the protein stability index reads like this: under setting [1], 5.61 ± 0.14; under setting [2], 5.63 ± 0.27.
With HFPHLLSPQIQRSAHRALYRRHVL [TMEM175], the protein stability index was 2.69 ± 0.26 under setting [1] and 2.85 ± 0.15 under setting [2].
MPTQEVQELPIPSKLLEFLSYRI [WSB1]: the protein stability index came to 2.82 ± 0.2 under setting [3] and 3.05 ± 0.12 under setting [4].
On to QMAEKNRRDAETWFLSKTEELNKE [KRT16], for which the protein stability index by setting is: under setting [1], 5.02 ± 0.57; under setting [2], 4.81 ± 0.35.
Taken in the same sequence, the figures for KERALSAPWLSLFPPEGNMEDKEM [ZNF263] were 4.82 ± 0.057 and 4.72 ± 0.18.
For DRDGHIKLTDFGFAKKLVDRTWTL [PRKX], in that order: 2.1 ± 0.35 and 2.35 ± 0.42.
For ALLDSLPPPVESELALFQMSVLWL [KLHL14], in that order: 2.45 ± 0.23 and 2.03 ± 0.19.
Consider YKYCDHENAAFKDVALVLTVLLEE [TOR1AIP2], for which the protein stability index is 2.5 ± 0.43 under setting [1] and 2.8 ± 0.52 under setting [2].
Taken in the same sequence, the figures for VTAKTAPDVLRTKPAFIGKTNLDG [PTPRD] were 3.73 ± 0.4 and 4.06 ± 0.35.
For EEFISNTLFKKIQALQKEKETLAV [CCDC6], in that order: 3.27 ± 0.33 and 3.39 ± 0.33.
For SKYQLSEAQLSLIRDIRRRGKNKM [NFE2L1], in that order: 3.69 ± 0.28 and 3.9 ± 0.54.
Sequence ARNNNDPGRLTEALCLEVRPTYFE [RNF180] had a protein stability index under setting [1] of 4.97 ± 0.23 and a protein stability index under setting [2] of 4.96 ± 0.18.
DLVPAALGSLTTAQIARSVWRPW [HES6] had a protein stability index under setting [3] of 2.09 ± 0.17 and a protein stability index under setting [4] of 2.32 ± 0.43.
As to RTARALLDRDALKQSLVVAVQDHG [PCDHGA10], the protein stability index under setting [1] turned out to be 3.72 ± 0.18 and the protein stability index under setting [2] worked out at 3.87 ± 0.34.
For TFVNVYIASFIRGPNPSKLIQQFL [CDS2], in that order: 2.4 ± 0.65 and 2.73 ± 0.6.
Taken in the same sequence, the figures for EECAKWLLLNNANPNLSNRRGSTP [RIPK4] were 3.56 ± 0.17 and 3.71 ± 0.067.
As to KNHVGKPLLKMDLNSEQAEQLERI [FAM98B], the protein stability index is, setting by setting: under setting [1], 4.8 ± 0.16; under setting [2], 4.67 ± 0.19.
In the case of NYLIFSQKPEFQDLSVEERSFVEK [RHOBTB3], the protein stability index under setting [1] is 3.61 ± 0.16 and the protein stability index under setting [2] came out at 3.69 ± 0.27.
For FSDDCDLPSAQDINRLVGLQNTYM [GLT8D2], in that order: 3.68 ± 0.26 and 3.66 ± 0.11.
VRKKRFRKTQKKVPDVKEMEKSSF [TAF7L]: the protein stability index by setting is: under setting [1], 4.1 ± 0.11; under setting [2], 4.37 ± 0.19.
For EKQLAKKEQSKELQMKLEKLREKE [FAM50A], in that order: 5.34 ± 0.35 and 5.17 ± 0.39.
For TSGGLLSEAPNEKLFFVDTGSKEK [NOP53], in that order: 4.92 ± 0.25 and 4.84 ± 0.68.
On to QLLFVIFLLLYLFTLGTNAIIIST [OR10K2], for which the protein stability index is, setting by setting: under setting [1], 3.18 ± 0.37; under setting [2], 3.19 ± 0.23.
Taken in the same sequence, the figures for LLVGRYPFHDSDPSALFSKIRRGQ [TRIB1] were 2.22 ± 0.23 and 2.46 ± 0.53.
Consider GLQSAQPTEGQGSLLTNWPSVPPT [MYBL2], for which the protein stability index by setting is: under setting [1], 4.02 ± 0.28; under setting [2], 4.14 ± 0.092.
Taken in the same sequence, the figures for NPSQKTGQALLTHLYQSSARRYAG [ELAVL3] were 3.58 ± 0.23 and 3.4 ± 0.36.
For NKILVPLVLLRQMLLELTRRGQEP [BCL2L13], in that order: 2.64 ± 1.6 and 2.92 ± 0.92.
CWPMMDFLRCVTAALIYFAISITA [CMTM3]: the protein stability index was found to be 3.23 ± 0.49 under setting [1] and 3.34 ± 0.26 under setting [2].
Taken in the same sequence, the figures for EITTQFLIYASYFALIAVVFLASG [SLC19A2] were 3.12 ± 0.9 and 3.33 ± 0.31.
Regarding KKINSNQLENEQSQENSINPIQKE [SPANXN3], the protein stability index turned out to be 5.66 ± 0.29 under setting [1] and 5.58 ± 0.26 under setting [2].
